“And” between values parts separate entries of the source, which are not always exact repeats. Equal values may be shown once. Read-outs that look alike come from different tables or passages of the source. Each block holds one binder with its values, some of them ahead of it.
Key:
[1] = target: T1, recombinant E. coli-expressed human IL-13 (human, UniProt P35225 35-146); assay: SPR
T1 construct: made and purified at GSK; also called Interleukin-13; rhIL-13

[2] = target: T1, recombinant E. coli-expressed human …; assay: SPR; remark: listed apart in the source
[3] = target: T2, recombinant E. coli-expressed human IL-4 (human, UniProt P05112 25-153); assay: SPR
T2 construct: made and purified at GSK; also called Interleukin-4; rhIL-4
T2 sequence: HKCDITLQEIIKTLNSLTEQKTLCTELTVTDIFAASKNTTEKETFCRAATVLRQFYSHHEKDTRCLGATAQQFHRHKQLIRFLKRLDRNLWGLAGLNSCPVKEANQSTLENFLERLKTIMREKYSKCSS

[4] = target: T3, recombinant E. coli-expressed cynomolgus IL-13 (cynomolgus, UniProt Q0PW92 21-132); assay: SPR
T3 construct: also called cyno IL-13

[5] = target: T1, recombinant E. coli-expressed human …; assay: cell-based or functional assay
[6] = target: T3, recombinant E. coli-expressed …; assay: cell-based or functional assay
[7] = target: T3, recombinant E. coli-expressed …; assay: SPR; remark: listed apart in the source
[8] = target: T4, recombinant E. coli-expressed cynomolgus IL-4 (cynomolgus, UniProt P79339 25-153); assay: SPR
T4 construct: also called cyno IL-4
T4 sequence (looked up): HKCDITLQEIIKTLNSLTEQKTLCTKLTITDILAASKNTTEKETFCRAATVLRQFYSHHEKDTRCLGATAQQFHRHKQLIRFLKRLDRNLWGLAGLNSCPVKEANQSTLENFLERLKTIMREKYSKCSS

[9] = target: T1, recombinant E. coli-expressed human …; assay: cell-based or functional assay; remark: listed apart in the source
[10] = target: T3, recombinant E. coli-expressed …; assay: cell-based or functional assay; remark: listed apart in the source
[11] = target: T1, recombinant E. coli-expressed human …; assay: cell-based or functional assay; remark: listed apart in the source
[12] = target: T3, recombinant E. coli-expressed …; assay: cell-based or functional assay; remark: listed apart in the source
[13] = target: T1, recombinant E. coli-expressed human …; assay: ELISA, IL-13 binding to IL13Ralpha2/Fc
[14] = target: T5, recombinant human HER2 (human, UniProt P04626 23-652, limits assumed); assay: ELISA
T5 construct: bought

[15] = target: T2, recombinant E. coli-expressed human IL-4; assay: SPR exp 2
[16] = target: T1, recombinant E. coli-expressed human …; assay: SPR exp 2
[17] = target: T1, recombinant E. coli-expressed human …; assay: SPR, purified
[18] = target: T2, recombinant E. coli-expressed human IL-4; assay: SPR, purified
[19] = target: T1, recombinant E. coli-expressed human …; assay: SPR stoichiometry
[20] = target: T2, recombinant E. coli-expressed human IL-4; assay: SPR stoichiometry
[21] = target: T2, recombinant E. coli-expressed human IL-4; assay: cell-based or functional assay
[22] = target: T2, recombinant E. coli-expressed human IL-4; assay: ELISA, IL-4 binding to IL4Ralpha-Fc

B3: BPC1615 (bispecific antibody, human IgG1, kappa)
heavy: not shown
light: EIVLTQSPATLSLSPGERATLSCRASQNISDYLHWYQQKPGQAPRLLIYYASQSISGIPARFSGSGSGTDFTLTISSLEPEDFAVYYCQNGHSFPLTFGGGTKVEIKRTVAAPSVFIFPPSDEQLKSGTASVVCLLNNFYPREAKVQWKVDNALQSGNSQESVTEQDSKDSTYSLSSTLTLSKADYEKHKVYACEVTHQGLSSPVTKSFNRGEC
notes: also called 656H TVAAPS-210 & 656kappa
Kd [1]: 0.085 nM

B4: PascoH-TVAAPS-567 (bispecific antibody, human IgG1, kappa)
heavy: not shown
light: DIVLTQSPSSLSASVGDRVTITCKASQSVDYDGDSYMNWYQQKPGKAPKLLIYAASNLESGIPSRFSGSGSGTDFTFTISSLQPEDIATYYCQQSNEDPPTFGQGTKVEIKRTVAAPSVFIFPPSDEQLKSGTASVVCLLNNFYPREAKVQWKVDNALQSGNSQESVTEQDSKDSTYSLSSTLTLSKADYEKHKVYACEVTHQGLSSPVTKSFNRGEC
Kd [2]: 0.038 nM
koff [2]: 1.7e-05 s⁻¹
kon [2]: 446000 M⁻¹ s⁻¹
binding result [3]: binds
Kd [4]: 8.8 nM
koff [4]: 0.00522 s⁻¹
kon [4]: 592000 M⁻¹ s⁻¹
Mean ND50 (TF-1) [5]: 2.06 nM
Mean ND50 (TF-1) [6]: 38.2 nM

B6: PascoH-TVAAPS-546 (bispecific antibody, human IgG1, kappa)
heavy: not shown
light: DIVLTQSPSSLSASVGDRVTITCKASQSVDYDGDSYMNWYQQKPGKAPKLLIYAASNLESGIPSRFSGSGSGTDFTFTISSLQPEDIATYYCQQSNEDPPTFGQGTKVEIKRTVAAPSVFIFPPSDEQLKSGTASVVCLLNNFYPREAKVQWKVDNALQSGNSQESVTEQDSKDSTYSLSSTLTLSKADYEKHKVYACEVTHQGLSSPVTKSFNRGEC
Kd [2]: 0.747 nM
koff [2]: 0.000169 s⁻¹
kon [2]: 226000 M⁻¹ s⁻¹
Kd [3]: 0.00482 nM
koff [3]: 2.37e-05 s⁻¹
kon [3]: 4.92e+06 M⁻¹ s⁻¹
Kd [4]: 12.5 nM
koff [4]: 0.0209 s⁻¹
kon [4]: 1.67e+06 M⁻¹ s⁻¹
Mean ND50 (TF-1) [5]: 1.52 nM
Mean ND50 (TF-1) [6]: 33.9 nM

B7: DOM10-53-616 domain antibody (other)
VH: GVQLLESGGGLVQPGGSLRLSCAASGFVFPWYDMGWVRQAPGKGLEWVSSIDWHGKITYYADSVKGRFTISRDNSKNTLYLQMNSLRAEDTAVYYCATAEDEPGYDYWGQGTLVTVSS
notes: anti-IL-13 dAb
Mean ND50 (TF-1) [11]: 0.416 nM
Mean ND50 (TF-1) [12]: 4.81 nM
Mean ND50 (TF-1) [5]: 0.536 nM
Mean ND50 (TF-1) [6]: 3.57 nM
IC50 [13]: 5.76 nM

B9: BPC1807 (bispecific antibody, human IgG1, kappa)
heavy: not shown
light: DIVMTQSPLSLPVTPGEPASISCRSSQSIVQSNGDTYLEWYLQKPGQSPQLLIYRVSNRFSGVPDRFSGSGSGTDFTLKISRVEAEDVGVYYCFQGSHVPYTFGQGTKLEIKRTVAAPSVFIFPPSDEQLKSGTASVVCLLNNFYPREAKVQWKVDNALQSGNSQESVTEQDSKDSTYSLSSTLTLSKADYEKHKVYACEVTHQGLSSPVTKSFNRGEC
notes: anti-HER2 DARPin fusion; also called antiIGF1R Heavy Chain-GS-DRPN
binding result [14]: binds

B10: BPC1806 (bispecific antibody, human IgG1, kappa)
heavy: not shown
light: DIVMTQSPLSLPVTPGEPASISCRSSQSIVQSNGDTYLEWYLQKPGQSPQLLIYRVSNRFSGVPDRFSGSGSGTDFTLKISRVEAEDVGVYYCFQGSHVPYTFGQGTKLEIKRTVAAPSVFIFPPSDEQLKSGTASVVCLLNNFYPREAKVQWKVDNALQSGNSQESVTEQDSKDSTYSLSSTLTLSKADYEKHKVYACEVTHQGLSSPVTKSFNRGEC
notes: anti-HER2 Affibody fusion
binding result [14]: binds

B12: PascoL-G4S-474 (bispecific antibody, human IgG1, kappa)
heavy: not shown
light: DIVLTQSPSSLSASVGDRVTITCKASQSVDYDGDSYMNWYQQKPGKAPKLLIYAASNLESGIPSRFSGSGSGTDFTFTISSLQPEDIATYYCQQSNEDPPTFGQGTKVEIKRTVAAPSVFIFPPSDEQLKSGTASVVCLLNNFYPREAKVQWKVDNALQSGNSQESVTEQDSKDSTYSLSSTLTLSKADYEKHKVYACEVTHQGLSSPVTKSFNRGECGGGGSGVQLLESGGGLVQPGGSLRLSCAASGFTFAWYDMGWVRQAPGKGLEWVSSIDWHGEVTYYADSVKGRFTISRDNSKNTLYLQMNSLRAEDTAVYYCATAEDEPGYDYWGQGTLVTVSS
Kd [15]: 0.063 nM and 0.052 nM
koff [15]: 0.000135 s⁻¹ and 0.000111 s⁻¹
kon [15]: 2.14e+06 M⁻¹ s⁻¹ and 2.13e+06 M⁻¹ s⁻¹
Kd [16]: 0.756 nM and 0.621 nM
koff [16]: 0.000425 s⁻¹ and 0.000347 s⁻¹
kon [16]: 563000 M⁻¹ s⁻¹ and 559000 M⁻¹ s⁻¹
Kd [17]: 1.2 nM
Kd [18]: 0.028 nM
Stoichiometry [19]: 1.8
Stoichiometry [20]: 1.8

B13: DOM9-112-210 domain antibody (other)
VH: EVQLLESGGGLVQPGGSLRLSCAASGFTFRNFGMGWVRQAPGKGLEWVSWIISSGTETYYADSVKGRFTISRDNSKNTLYLQMNSLRAEDTAVYYCAKSLGRFDYWGQGTLVTVSS
notes: anti-IL-4 dAb
Mean IC50 (whole blood phospho-STAT6) [21]: 3.51 nM
IC50 [22]: 36.8 nM

The remaining lines, values ahead:

Kd [1]: 1.01 nM
B1: BPC1609 (bispecific antibody, human IgG1, kappa)
heavy: not shown
light: DIVMTQSPLSLPVTPGEPASISCRSSQNIVHINGNTYLEWYLQKPGQSPRLLIYKISDRFSGVPDRFSGSGSGTDFTLKISRVEADDVGIYYCFQGSHVPWTFGQGTKLEIKRTVAAPSVFIFPPSDEQLKSGTASVVCLLNNFYPREAKVQWKVDNALQSGNSQESVTEQDSKDSTYSLSSTLTLSKADYEKHKVYACEVTHQGLSSPVTKSFNRGEC

Kd [1]: 0.565 nM
B2: BPC1612 (bispecific antibody, human IgG1, kappa)
heavy: not shown
light: DIVMTQSPLSLPVTPGEPASISCRSSQNIVHINGNTYLEWYLQKPGQSPRLLIYKISDRFSGVPDRFSGSGSGTDFTLKISRVEADDVGIYYCFQGSHVPWTFGQGTKLEIKRTVAAPSVFIFPPSDEQLKSGTASVVCLLNNFYPREAKVQWKVDNALQSGNSQESVTEQDSKDSTYSLSSTLTLSKADYEKHKVYACEVTHQGLSSPVTKSFNRGEC

Kd [7]: 23.8 nM
koff [7]: 0.0114 s⁻¹
kon [7]: 479000 M⁻¹ s⁻¹
Kd [8]: 0.029 nM
koff [8]: 5.3e-05 s⁻¹
kon [8]: 1.83e+06 M⁻¹ s⁻¹
Mean ND50 (TF-1) [9]: 1.37 nM
Mean ND50 (TF-1) [10]: 21.5 nM
B5: PascoH-GS-ASTKGPT-474 2nd GS removed (bispecific antibody, human IgG1, kappa)
heavy: not shown
light: DIVLTQSPSSLSASVGDRVTITCKASQSVDYDGDSYMNWYQQKPGKAPKLLIYAASNLESGIPSRFSGSGSGTDFTFTISSLQPEDIATYYCQQSNEDPPTFGQGTKVEIKRTVAAPSVFIFPPSDEQLKSGTASVVCLLNNFYPREAKVQWKVDNALQSGNSQESVTEQDSKDSTYSLSSTLTLSKADYEKHKVYACEVTHQGLSSPVTKSFNRGEC

binding result [14]: binds
B8: BPC1805 (bispecific antibody, human IgG1, kappa)
heavy: not shown
light: DIVMTQSPLSLPVTPGEPASISCRSSQSIVQSNGDTYLEWYLQKPGQSPQLLIYRVSNRFSGVPDRFSGSGSGTDFTLKISRVEAEDVGVYYCFQGSHVPYTFGQGTKLEIKRTVAAPSVFIFPPSDEQLKSGTASVVCLLNNFYPREAKVQWKVDNALQSGNSQESVTEQDSKDSTYSLSSTLTLSKADYEKHKVYACEVTHQGLSSPVTKSFNRGEC
notes: anti-HER2 Affibody fusion; also called antiIGF1R Heavy Chain-GS-AFFI

binding result [14]: binds
B11: BPC1808 (bispecific antibody, human IgG1, kappa)
heavy: not shown
light: DIVMTQSPLSLPVTPGEPASISCRSSQSIVQSNGDTYLEWYLQKPGQSPQLLIYRVSNRFSGVPDRFSGSGSGTDFTLKISRVEAEDVGVYYCFQGSHVPYTFGQGTKLEIKRTVAAPSVFIFPPSDEQLKSGTASVVCLLNNFYPREAKVQWKVDNALQSGNSQESVTEQDSKDSTYSLSSTLTLSKADYEKHKVYACEVTHQGLSSPVTKSFNRGEC
notes: anti-HER2 DARPin fusion

— US20110008345A1 (GlaxoSmithKline, published 2011)
